According to US6693166 (HONG KONG UNIVERSITY OF SCIENCE AND TECHNOLOGY, dated 2004):

Biological target: T1, GST-Cdk5.GST-Nck5a complex (Homo sapiens (Human), UniProt Q00535 1-292; Q15078 99-307)
T1 construct: also called Cdk5/Nck5a complex; Cdk5.Nck5a complex
Assay: steady state kinase kinetics with histone H1 peptide as substrate, Dixon plot; noncompetitive with respect to the substrate
Method: Peptide Inhibition of Cdk5 and Cdk2 Kinase Activity—Cdk5 kinase activity was assayed essentially as described previously, except that for each Cdk5 kinase reaction 1 µg of GST-Cdk5 was reconstituted with 2 µg of GST-Nck5a, and 1 µg of GST-Cdk2 was mixed with 3 µg of cyclin A-H6 in Cdk2 assays. The reconstituted complexes were added, in duplicate, to an assay mixture containing 30 mM MOPS, pH 7.4, 10 mM MgCl_2, 40 µM of the histone H1 peptide, 50 µM [γ-^32P]ATP, and various concentrations of various peptides at 30° C. for 30 min before measuring the Cdk5 and Cdk2 kinase activities.
Steady State Kinetic Experiments—All assay conditions were the same as in the inhibition assay described above, except that the reaction time was kept at 15 min so that the product formed was less than 5% of the total substrate concentration used. To determine suitable concentrations of the substrate and the inhibitor for the steady state kinetic experiments, the K_m value of GST-Cdk5.GST-Nck5a complex and a concentration-dependent inhibition profile of the enzyme by the α_N peptide were determined. […]
Kinetic Analysis of Cdk5 Inhibition by the α_N Peptide—We also analyzed the kinetic properties of the α_N peptide with respect to the kinase substrate, the histone H1 peptide.

B1: synthetic 28-residue Nck5a peptide corresponding to Ala146 to Asp173 of Nck5a (peptide)
peptide: ASTSELLRCLGEFLCRRCYRLKHLSPTD
notes: Chemically synthesised (Fmoc), purity above 95%; Gln145 of the recombinant 29-residue fragment was left out; also called αN peptide
- Ki: ~25 µM
